Measurements: patent US20160297883A1, “G-PROTEIN COUPLED RECEPTOR AGONISTS AND METHODS” (Innovative Targeting Solutions, Inc., priority 2013, published 2016)

Target: T1, GLP1R (Homo sapiens, UniProt P43220, A316G/L260F)
T1 construct: host or cells: HuTARG cells (engineered HEK293), subclone L696 / L696.19
Experiment: cAMP-responsive CD19 surface reporter assay in HuTARG-L696 GLP1R reporter cell line (FACS)
Format: cell-based
Text: HuTARG™ cells, which are HEK293 cells engineered to be capable of de novo antibody generation, were used to generate the reporter cell line. HuTARG™ cells have been stably transfected with expression cassettes for RAG1 and RAG-2 and Tdt. RAG-1 expression is inducible as the gene has been placed downstream of a Tet inducible promoter. HuTARG™ cells have also been stably transfected with a plasmid containing a LoxP site for subsequent insertion of V(D)J substrates.
HuTARG™ cells were modified to express the GLP1 receptor as well as express a reporter gene that was activated by cAMP. […]
Depleted cells were subsequently expanded and depleted an additional time using the same protocol except using a Miltenyi LD magnetic column. […] Single cell clones confirmed to have minimal CD19 expression in the absence of ligand were evaluated for induction of CD19 in the presence of 10 nM Exendin and the L696 subclone was selected. […]
The peptide-grafted antibody, ITS007-V107, was subsequently cloned and expressed as a single-domain VH-IgG antibody without CH1 or a light chain and it was confirmed that the peptide-grafted heavy chain was functional in this format as well (FIG. 12). […]
ITS007-V125 was cloned into a secretion vector, expressed and purified. […] The next day, binding and the percentage of cells expressing the surface marker were determined by FACS.

T1 sequence (P43220 24-463 L260F/A316G): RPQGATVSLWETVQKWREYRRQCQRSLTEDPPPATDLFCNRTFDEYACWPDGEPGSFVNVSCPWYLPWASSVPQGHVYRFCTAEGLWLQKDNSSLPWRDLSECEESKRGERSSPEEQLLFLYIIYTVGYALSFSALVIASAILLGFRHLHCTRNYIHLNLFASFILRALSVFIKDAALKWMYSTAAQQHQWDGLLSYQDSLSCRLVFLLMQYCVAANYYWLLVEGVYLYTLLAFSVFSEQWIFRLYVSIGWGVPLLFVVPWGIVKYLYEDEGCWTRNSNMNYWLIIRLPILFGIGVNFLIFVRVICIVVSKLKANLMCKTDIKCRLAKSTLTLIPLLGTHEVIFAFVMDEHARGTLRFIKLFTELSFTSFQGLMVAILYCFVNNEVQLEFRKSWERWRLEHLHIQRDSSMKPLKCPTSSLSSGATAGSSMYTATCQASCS

Substance: Exendin-4 [reference compound]
- induction of CD19 expression (10 nM, 24 hours, L696 cell line): CD19 expression is specifically induced
- percentage of cells showing CD19 expression (50 nM, 48 hours incubation with reporter line): approximately 8%
